Measurements reported in patent US20220305136A1 (ASCENDIS PHARMA ONCOLOGY DIVISION A S, published 2022).

Molecular target: T1, human CTLA-4 (AA Ala37-Ser160)-Fc Tag fusion protein (human, UniProt P16410 37-160)
T1 construct: range 37-160; Bought reagent, coated on ELISA wells as the capture protein; also called AcroBiosystem catalog no; CT4-H5255; not shown: Fc Tag of the bought fusion protein
T1 sequence (looked up): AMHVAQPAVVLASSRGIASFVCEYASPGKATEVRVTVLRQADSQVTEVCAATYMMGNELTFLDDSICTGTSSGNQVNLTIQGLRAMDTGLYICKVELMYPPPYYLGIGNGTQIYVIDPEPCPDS
Experiment: in-house sandwich ELISA; CTLA-4-Fc coated on plate captures HHC^MET from rat plasma; read-out with rabbit anti-camelid VHH antibody-HRP
Source text: These solutions were used for the generation of a calibration curve.

B1: HHC^MET (VHH)
chain: EVQLVESGGGLVQAGGSLRLSCAASGGTFSFYGMGWFRQAPGKEQEFVADIRTSAGRTYYADSVKGRFTISRDNAKNTVYLQMNSLKPEDTAVYYCAAEMSGISGWDYWGQGTQVTVSSGGGGSGGGSEVQLVESGGGLVQAGGSLRLSCAASGGTFSFYGMGWFRQAPGKEQEFVADIRTSAGRTYYADSVKGRFTISRDNAKNTVYLQMNSLKPEDTAVYYCAAEMSGISGWDYWGQGTQVTVSS
notes: Custom made, expressed in E. coli; The assay measured free HHC^MET in rat plasma, either spiked in as standard or released from the hydrogel prodrug; also called HHC^MET-NH2
B1: binds.
